The nanobody polyreactivity screen of Harvey et al. (2022)

Assay: yeast display, Sf9 membrane polyspecificity reagent, FACS + sequencing; frameworks hold sequencing errors
In short: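 Nanobodies from a synthetic yeast display library (Saccharomyces cerevisiae BJ5465), induced 36–48 hours with galactose, were stained 1 hour at 4 °C with 10% biotinylated, detergent-solubilized Sf9 membrane reagent, enriched on streptavidin microbeads, then FACS-sorted. Anti-HA (expression) and streptavidin (reagent binding) fluorescence set low and high (top ~1%) gates. Polyreactivity labels come from the gate of origin. Genes were colony-PCR amplified, MiSeq 2 × 250 sequenced and filtered by CDR length.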

Question: Which “polyreactivity (PSR sort gate)” value does the source give for “QVRLVESGGGLVQAGGSLRLSCAASGSTFVYYAMGRYRQAPGNERELVAAITSGDSTYYADSVKGRFTISRDNAKNTVYLQMNSLKPEDTAVYYCAKRISYLPVEMDYWGQGTQVSVSS” here?
Answer: low polyreactivity

Question: Which “polyreactivity (PSR sort gate)” value does the source give for “QYQLVESGGGLVQAGGRLRLSCAASGSIFSNYAMGWYRQAPGKERQFVAAISGGGGSTYYADSVKGRFTISRDNANNTVYLQMNSLKPEDTAVYYCARVRYYGALKLYAYDHWGQGTQVTVSS” here?
Answer: high polyreactivity

Question: For “RVQLPESGGGLVQAGGSLRLTCAASGTIFIRGDMGWYRQSPGKEREFVATIDTGSNTYYADSEKGRFTISRDNAKNAVYLQMNCLKPGDTAVYYCVVDYQLSGRLRYWGQGTQVTLSS”, which “polyreactivity (PSR sort gate)” value is on record?
Answer: low polyreactivity

Question: With “RVQLQESGGGLVQAGGSLRLSCAASGTIFIRGDMGWYRQAPGKEREFVATIDTGSNTYNADSEKGRFTISRDNAKNAVYLQMNCLKPGDTAVYYCVVDYQLSGRLRYWGQGTQVTLSS” as the sequence, how does the “polyreactivity (PSR sort gate)” value read?
Answer: low polyreactivity

Question: With “RVQLVESAGGLLQAGGSLRLSCAASGRTFTLYAMGWDRQAPGKDRELVAAIRWSGSSTYYADSVKGRFTISRDYAKHTVYLQINSLKPEATAVYYCAARAGRYERYGYWGQGTQVTVSS” as the sequence, how does the “polyreactivity (PSR sort gate)” value read?
Answer: high polyreactivity

Question: For “RVQLVESGGGLVQAGGSLRLSCAASGLIFYYNAMVWYRQAPGKERELVAAISTGGSTNYADSVKGRFTISRYNAKNTVYLQMNSLKPEDTAVYYCAAGTRKPYGYKMYYWGQGTQVTVSS”, which “polyreactivity (PSR sort gate)” value is on record?
Answer: high polyreactivity

Question: With “RVQLVESGGGLVQAGGSLRLSCAASGSISQGNAMGWYRQAPGKERELVADIRWTSGRTYYADSVKGRFTISRDNAKNTVYLQMNSLKPEDTAVYYCAAYYVYYTPTLIDRDYWGQGNQVTVSS” as the sequence, how does the “polyreactivity (PSR sort gate)” value read?
Answer: low polyreactivity

Question: With “VQLVESGGGLVQAGGSLRLSCAASGRIFSNNAMGWYRQAPGKEREFVAAITTSAGRTYYADSVKGRFTISRDNAKNTVYLQMNSLKPEDTAVYYCAAEPRQYWEYNYWGQGTQVTVSS” as the sequence, how does the “polyreactivity (PSR sort gate)” value read?
Answer: high polyreactivity
